Laboratory results reported in US12673985B2, “Method for the treatment or prophylaxis of cancer by targeting the extracellular portion of keratin 14 (KRT14) residing on cancer cells” (Hudson Institute of Medical Research, priority 2019, dated 2026).

Experiments:
[1] = test system: OVCAR4 ovarian cancer cells; assay: Real time cell analysis (RTCA) of proliferation with cisplatin and mAb AN-17; assay type: cell-based, human
Description: Real time cell analysis (RTCA) was conducted as previously described (PMID: 31443478; Bilandzic et al., Cancers (Basel). 2019; 11(9), E1228) using an xCELLigence RTCA SP 96-well instrument (ACEA Biosciences). Cell lines were synchronized in G0 by overnight incubation in serum-free media and were seeded at 0.5×10^3 cells/0.15 ml/per well. […] Impedance readings were taken every 15 minutes for the experimental duration. mAb AN-17 comprises the heavy chain variable region of SEQ ID NO:3 and the light chain variable region of SEQ ID NO:5, encoded by the nucleic acid sequences of SEQ ID NOs:2 and 4, respectively (see also FIGS. 21 and 22A-22B).

KRT14+ CTCs = assay: Flow cytometry detection of circulating tumour cells in blood of mice bearing ID8 iRFP720+ epithelial ovarian tumours; assay type: cell-based; conditions: confirmed by iRFP720+ status
Description: Flow cytometry was carried out according to standard protocols (PMID: 30602661), with data acquired using a BD LSRFortessa X-20 (BD Biosciences) and analysed using FlowJo software v10.5.0 (BD Biosciences). Samples assessed for KRT14+ cell populations included OVCAR3, CAOV4, ID8 mouse ovarian cancer cells, ascites-derived ovarian cancer cells derived from a clinical specimen (designated #3.1937-07) and cardiac blood from a mice bearing 12-week old epithelial ovarian tumours. For cell lines, 1×10^6 cells per cell line were incubated with either mAb AN-17 (1:200 dilution) or a commercially available anti-KRT14 polyclonal antibody (Sigma SAB4501657; 1:50 dilution) as a positive control for 45 mins in non-immune serum at room temperature. The secondary antibodies, goat anti-mouse Alexa647 (mAb AN-17) or goat anti-rabbit IgG Alexa 488 (commercial Ab), were diluted 1:500 and incubated for 30 minutes. For blood samples, 2×10^6 cells were incubated with an Alexa Fluor®488-conjugated mAb AN-17 antibody for 45 minutes. Following PBS washes, cells were resuspended in PBS/2% FBS data was acquired using a BD LSRFortessa X-20 (BD Biosciences) flow cytometer.
Expression of extracellular KRT14 also marks the circulating tumour cell (CTC) population.

KRT14 [2] = molecular target: T1, KRT14 (Homo sapiens, UniProt P02533); assay: Immunohistochemical staining of FFPE tumour tissue sections; conditions: 2 μg/ml-0.25 μg/ml, overnight incubation
T1 sequence (P02533 1-472): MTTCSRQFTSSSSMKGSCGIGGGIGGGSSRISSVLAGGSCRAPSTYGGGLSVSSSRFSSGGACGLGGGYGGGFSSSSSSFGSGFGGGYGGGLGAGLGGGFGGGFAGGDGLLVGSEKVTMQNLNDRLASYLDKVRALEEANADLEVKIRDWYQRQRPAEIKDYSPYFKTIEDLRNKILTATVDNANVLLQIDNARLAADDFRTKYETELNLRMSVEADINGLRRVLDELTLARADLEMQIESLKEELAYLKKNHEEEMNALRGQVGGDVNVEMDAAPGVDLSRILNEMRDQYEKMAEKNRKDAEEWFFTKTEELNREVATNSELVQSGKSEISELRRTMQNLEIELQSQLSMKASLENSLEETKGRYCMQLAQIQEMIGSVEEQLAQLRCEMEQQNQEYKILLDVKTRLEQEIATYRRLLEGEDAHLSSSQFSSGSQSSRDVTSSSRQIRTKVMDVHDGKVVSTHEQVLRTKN
Description: Human Tissue Arrays and Immunohistochemistry. Immunohistochemistry was performed on tissue micrarray (TMA) sections purchased from USBIOMAX (#ov2085, #ov20811) or generated in house (tumour and fallopian tube) as previously described [Bilandzic et al. (2014) Cancer Lett 354(1):107-114; Rainczuk et al. (2013) J Proteome Res; Salamonsen et al. (2013) Fertil Steril 99(4):1086-92](Supplementary Data 6 and 7). For antigen retrieval, sections were incubated for 10 minutes in 50 mM glycine (pH 3.5) at 90° C. Sections were incubated overnight at 4° C. with Rb-KRT14 antibody (1:100, Sigma, SAB4501657) and mAb AN-17 (1:500) in 0.1% w/v BSA/PBS. Subsequent steps were performed at room temperature, with PBS washes between incubations. […] Antibody binding was detected as a brown precipitate after development with 3,3′-diaminobenzidine tetrahydrochloride, and Harris hematoxylin was used as counterstain. […] Positive immunostaining was assessed relative to parallel sections exposed to an isotype (IgG) control. Immunostaining in tumor and stromal tissue was assessed using Aperio ImageScope (v 12.3.3) as described (Rainczuk et al. (2013) supra). […]

KRT14 [3] = molecular target: T1, KRT14; assay: Immunofluorescence staining of ovarian cancer cell lines SKOV-3, Ovcar4 and Cov362.3; assay type: cell-based; design: endogenous in cells; host or cells: SKOV-3, Ovcar4, Cov362.3; conditions: 1 μg/ml
Description: The ovarian cancer cell lines SKOV-3, Ovcar4 and Cov362.3 were seeded onto 96 well black fluortrac imaging plates. Intact or fixed (1% paraformaldehyde; PFA) and permeabilized (0.1% Triton X) cells were stained using mAb AN-17. For fixed cells, samples were blocked in 10% fetal bovine serum (FBS) and then stained with 1 μg/ml mAb AN-17 for one hour at room temperature. Cells were subsequently washed with PBS and stained with the Alexa Fluor®-647 goat anti-mouse secondary at 1:2000 for one hour at room temperature. For intact cells, samples were stained with 1 μg/ml mAb AN-17 conjugated to Alexa-647 in PBS containing 1% FBS for two hours at 37° C., the medium was replaced with fresh PBS/1% FBS and cells were immediately imaged. Samples were imaged using the Cytation 3 multimode reader at 4× magnification.

B1: mAb AN-17: monoclonal anti-KRT14 antibody; heavy chain variable region SEQ ID NO:3, light chain variable region SEQ ID NO:5 (clone AN-17A RG4.E5b.A7.B4) (antibody, listed as Mus musculus, V domains shown)
VH: QVQLKESGPGLVAPSQSLSITCTVSGFSLSRYSVHWVRQPPGKGLEWLGMIWGGGSTDYNSALKSRLSISKDNSKSQVFLKMNSLQTDDTAMYYCARKDYGYSYFDYWGQGTTLTVSS
VL: DVLMTQTPLSLPVSLGDQASISCRSSQSIVHSNGNTYLEWYLQKPGQSPKLLIYKVSNRFSGVPDRFSGSGSGTDFTLKISRVEAEDLGVYYCFQGSHVPFTFGSGTKLEIKRADAAPTVS
enhancement of the toxicity of cisplatin ([1]; cisplatin at sub-lethal doses): significantly enhanced the toxicity of cisplatin
increase in sensitivity of cells to standard platinum chemotherapy ([1]; in vitro): at least 10 fold
cell viability or proliferation ([1]; mAb AN-17 alone (1 ug/ml)): had no effect on cell viability or proliferation
identification of circulating tumour cells from whole blood (KRT14+ CTCs): able to detect and isolate KRT14+ CTCs
identification of circulating tumour cells from whole blood (KRT14+ CTCs; listed as mAB AN-17): able to correctly identify iRFP+ cells from whole blood
staining localization in tumour tissue (KRT14 [2]): Staining was restricted to tumour epithelium
staining localization in tumour tissue (KRT14 [2]; listed as mAb A-17): staining observed specifically in the tumour epithelium
staining localization (KRT14 [3]; fixed and permeabilized cells): Specific intracellular cytoplasmic localization
staining localization (KRT14 [3]; intact live cells): predominant cell surface localization
